Test results: article PMC3944234

Target: GAL4-Nef (HIV-1 Nef fused to the GAL4 DNA-binding domain) (HIV-1)
Experiment: two-hybrid

For “VP16-eEF1A (eEF1A fused to the VP16 activation domain) (from UniProt P68104 1-462) (natural protein)”, which relative luciferase expression is on record?
The relative luciferase expression was 1850 r.l.u.
